Columns and labels:
[1] = tested on: erythroid-cultured CD34^+lin^- cells; experiment: Methylcellulose colony-forming assay two to three days after transfection of cultured erythroid cells; format: cell-based, human; conditions: for # of erythroid colonies in EpoR(t439; R154C) transfected samples: BFU-E and CFU-E; for increase in erythroid colonies: versus untransfected or mock transfected control
Procedure: CD34^+lin^− cells cultured for 7 to 10 days in EPSFM+LDL were washed in EB and subjected to electroporation in the presence of EpoR(t439; R154C)/pcDNA3.1 expression vector as described in Example 3. Two to three days post-transfection, aliquots of untransfected and EpoR(t439; R154C)/pcDNA3.1 transfected cells were counted for viability by trypan-blue dye exclusion and methylcellose colony-forming assays were performed in IMDM, 1% methylcellulose, 30% FBS, 1% BSA, 10^−4 M β mercaptoethanol, and […] glutamine, IL-3 (10 ng/ml), SCF (50 ng/ml) and EPO (2 U/ml).

[2] = tested on: BaF3 cells; experiment: Cytokine-dependency growth of BaF3 cells transfected with human EpoR constructs; format: cell-based, murine; conditions: for growth of BaF3 transfectants: no exogenous IL-3
Procedure: The functionality of the EpoR(t439; R154C) was tested and compared to the wild-type EpoR (wtEpoR) and EpoR(t439) using the BaF3 cell line. The cDNAs encoding these three different EpoRs were subcloned into the pcDNA3.1 expression vector, which provides high-level constitutive expression of proteins in mammalian cells and also contains the neomycin gene for the selection of stable transfectant with G418. The vector constructs were electroporated into BaF3 cells and stable transfectants were isolated in the presence of 600 ug/ml G418. BaF3 transfectants were maintained in RPMI-1640 with 10% FBS and 5% WEHI conditioned medium (a source of murine IL-3), except during the cytokine-dependency studies when cells were maintained in RPMI-1640 plus 10% FBS, along with the indicated cytokines. Growth of the different EpoR transfectants in the presence of either murine IL-3 or two different doses of Epo was compared to that of the parental (non-transfected) BaF3 cells (FIG. 7). […] All three EpoR constructs encode functional receptors that allow expansion of the BaF3 cells in the presence of Epo without exogenous IL-3.

[3] = tested on: erythroid-cultured CD34^+lin^- cells; experiment: Methylcellulose colony-forming assay after 14 days liquid culture in G418; format: cell-based, human; conditions: after 14 days liquid culture with 500 ug/ml G418
Procedure: Cells transfected with either EpoR(t439; R154C)/pcDNA3.1 or the pcDNA3.1 vector alone were placed in liquid culture (IMDM, 1% BSA, 10 ng/ml rhIL-3, 50 ng/ml SCF and 2 U/ml EPO) in the presence of 500 ug/ml G418 for 14 days. At this time, cells were counted for viability by trypan-blue dye exclusion and methylcellose colony-forming assays were performed in IMDM, 1% methylcellulose, 30% FBS, 1% BSA, 10^−4 M β mercaptoethanol, and […] glutamine, IL-3 (10 ng/ml), SCF (50 ng/ml), EPO (2 U/ml) and 500 ug/ml G418. […] No colonies were detected in the untransfected or “mock” transfected controls. Thus, expression of the EpoR(t439; R154C)/pcDNA3.1 plasmid not only conferred G418 resistance but increased the number of erythroid progenitors detectable after 14 days of liquid culture.

B1: EpoR(t439; R154C): human EpoR truncated at amino acid 439 with R154C point mutation; constitutively active (SEQ ID NOS 6 and 7) (protein, listed as Homo sapiens)
chain: MDHLGASLWPQVGSLCLLLAGAAWAPPPNLPDPKFESKAALLAARGPEELLCFTERLEDLVCFWEEAASAGVGPGNYSFSYQLEDEPWKLCRLHQAPTARGAVRFWCSLPTADTSSFVPLELRVTAASGAPRYHRVIHINEVVLLDAPVGLVACLADESGHVVLRWLPPPETPMTSHIRYEVDVSAGNGAGSVQRVEILEGRTECVLSNLRGRTRYTFAVRARMAEPSFGGFWSAWSEPVSLLTPSDLDPLILTLSLILVVILVLLTVLALLSHRRALKQKIWPGIPSPESEFEGLFTTHKGNFQLWLYQNDGCLWWSPCTPFTEDPPASLEVLSERCWGTMQAVEPGTDDEGPLLEPVGSEHAQDTYLVLDKWLLPRNPPSEDLPGPGGSVDIVAMDEGSEASSCSSALASKPSPEGASAASFEYTILDPSSQLLRP
With B1 the “# of erythroid colonies in EpoR(t439; R154C) transfected samples” value (shortened to “# of erythroid colonies”) ([1]; Experiment # 1) was 428, the “increase in erythroid colonies” value ([1]; Experiment # 1) was “+388” and the “# of erythroid colonies” value ([1]; Experiment # 2) was 522. The “increase in erythroid colonies” value ([1]; Experiment # 2) was “+98”, the “# of erythroid colonies” value ([1]; Experiment # 3) was 66 and the “increase in erythroid colonies” value ([1]; Experiment # 3) was “+66”. For the same molecule, the “growth of BaF3 transfectants” value ([2]; 0.02 U/ml Epo) was “grew in the presence of either 0.02 or 2 U/ml Epo but less than in the presence of IL-3”, the “growth of BaF3 transfectants” value ([2]; 2 U/ml Epo) was “grew in the presence of either 0.02 or 2 U/ml Epo but less than in the presence of IL-3” and the “expansion of BaF3 cells” value ([2]; absence of exogenous cytokines) was “supported expansion”. The “functionality of the EpoR” value ([2]; conclusion from BaF3 growth) was “constitutively active form of the EpoR” and the “erythroid colonies compared to pcDNA3.1 vector alone” value [3] was “More erythroid colonies”.
